Drawing on publication PMC314469, “Protein Interaction Networks by Proteome Peptide Scanning” (PLoS Biology, 2004), this text covers normalised SPOT signal, Boehringer light units (BLU); mean over the file's lines of this peptide for 28 molecules.

The target in test [1] is T1, amphyphisin SH3 (AMPH_HUMAN), P49418.
T1 chain: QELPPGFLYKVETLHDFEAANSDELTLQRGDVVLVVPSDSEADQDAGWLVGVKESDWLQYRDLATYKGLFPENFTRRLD
Put plainly: SPOT array.

Test [2] addresses endophilin SH3 (SH3G2_HUMAN), Q99962. Put plainly: SPOT array.

B1: Q13078 876-889 (peptide)
chain: PSPAPPRPARVPAH
As for B1, the normalised SPOT signal, Boehringer light units (BLU); mean over the file's lines of this peptide was found to be 2020 in test [1] and 3100 in test [2].

B2: Q9H7P7 809-822 (peptide)
chain: PASAFDRPARTRGQ
For the molecule B2, the normalised SPOT signal, Boehringer light units (BLU); mean over the file's lines of this peptide in test [1] worked out at 2010; in test [2] it was 98.4.

B3: Q9ULT6 397-410 (peptide)
chain: PAHPFRRPKLSGRS
On to B3, for which the normalised SPOT signal, Boehringer light units (BLU); mean over the file's lines of this peptide in test [1] stood at 49.5; in test [2], 64.8.

B4: Q92542 409-422 (peptide)
chain: PAVILRRPNQSQPL
Take B4: the figures for the normalised SPOT signal, Boehringer light units (BLU); mean over the file's lines of this peptide in test [1] and in test [2] were 16.5 and 108, respectively.

B5: Q9NQ45 25-38 (peptide)
chain: PASALPRPPRLSGS
B5: the normalised SPOT signal, Boehringer light units (BLU); mean over the file's lines of this peptide in test [1] stood at 4470; in test [2], 92.9.

B6: Q14184 101-115 (peptide)
chain: PARPPAKPPEDEPD
B6: the normalised SPOT signal, Boehringer light units (BLU); mean over the file's lines of this peptide in test [1] was 56.7; in test [2], 45.8.

B7: Q8TF74 224-238 (peptide)
chain: PAPPPVKPPPSPVN
In the case of B7, the normalised SPOT signal, Boehringer light units (BLU); mean over the file's lines of this peptide in test [1] worked out at 43.7; in test [2] it was 182.

B8: Q02080 268-282 (peptide)
chain: PAAPPRRPPQSASS
As for B8, the normalised SPOT signal, Boehringer light units (BLU); mean over the file's lines of this peptide in test [1] was found to be 3320; in test [2], 1450.

B9: P01031 668-681 (peptide)
chain: PSKEILRPRRTLQK
With B9, the normalised SPOT signal, Boehringer light units (BLU); mean over the file's lines of this peptide in test [1] was determined as 1040; in test [2], 181.

B10: Q9UKQ9 224-237 (peptide)
chain: PSSRPRRPAVYTSV
For the molecule B10, the normalised SPOT signal, Boehringer light units (BLU); mean over the file's lines of this peptide is 39.7 in test [1] and 260 in test [2].

B11: O60593 320-334 (peptide)
chain: PALSPTRPPKKPLD
Turning to B11, the values for the normalised SPOT signal, Boehringer light units (BLU); mean over the file's lines of this peptide in test [1] and in test [2] were 599 and 1720, respectively.

B12: Q9Y358 352-365 (peptide)
chain: ARPELRRPGVQGIP
Turning to B12, the normalised SPOT signal, Boehringer light units (BLU); mean over the file's lines of this peptide in test [1] came to 25.7; in test [2] it was 73.8.

B13: Q9BR83 136-149 (peptide)
chain: PAPRIKRPRLQVVK
As for B13, the normalised SPOT signal, Boehringer light units (BLU); mean over the file's lines of this peptide was determined as 70.5 in test [1] and 27.2 in test [2].

B14: Q9P2D1 825-838 (peptide)
chain: PSAKPRRPQDKSQG
As for B14, the normalised SPOT signal, Boehringer light units (BLU); mean over the file's lines of this peptide in test [1] was 38.3; in test [2] it was 78.4.

B15: Q9P281 735-748 (peptide)
chain: ARRGPGRPRKRKHS
On to B15, for which the figures for the normalised SPOT signal, Boehringer light units (BLU); mean over the file's lines of this peptide in test [1] and in test [2] were 121 and 231, respectively.

B16: Q16623 232-245 (peptide)
chain: PSLTPRRPSSTRAR
Take B16: the normalised SPOT signal, Boehringer light units (BLU); mean over the file's lines of this peptide in test [1] turned out to be 869; in test [2], 1390.

B17: Q9ULT2 697-711 (peptide)
chain: PAVPPARPPTAQEV
On to B17, for which the normalised SPOT signal, Boehringer light units (BLU); mean over the file's lines of this peptide in test [1] was found to be 92; in test [2] it was 509.

B18: Q99941 295-308 (peptide)
chain: PAPSLPRPERKSIV
In the case of B18, the values for the normalised SPOT signal, Boehringer light units (BLU); mean over the file's lines of this peptide in test [1] and in test [2] were 152 and 143, respectively.

B19: Q96S08 21-34 (peptide)
chain: PAASPRRPAPRTGP
For the molecule B19, the normalised SPOT signal, Boehringer light units (BLU); mean over the file's lines of this peptide in test [1] worked out at 21.1; in test [2] it was 48.9.

B20: Q9UK39 24-37 (peptide)
chain: PAPGLRRPLSPPAA
In the case of B20, the normalised SPOT signal, Boehringer light units (BLU); mean over the file's lines of this peptide is 57.1 in test [1] and 104 in test [2].

B21: Q9UPV8 1233-1246 (peptide)
chain: PATAPARPLRLPSG
In the case of B21, the values for the normalised SPOT signal, Boehringer light units (BLU); mean over the file's lines of this peptide in test [1] and in test [2] were 11300 and 7710, respectively.

B22: Q9UQ51 6-19 (peptide)
chain: PAVPPGRPRRGSLP
For B22, the normalised SPOT signal, Boehringer light units (BLU); mean over the file's lines of this peptide was 2070 in test [1] and 7480 in test [2].

B23: Q8WZ58 338-351 (peptide)
chain: PAPRLRRPGRVRPH
Consider B23, for which the normalised SPOT signal, Boehringer light units (BLU); mean over the file's lines of this peptide in test [1] is 71.5; in test [2], 71.1.

B24: O00456 575-588 (peptide)
chain: PAQLPRRPAQRPGE
For B24, the normalised SPOT signal, Boehringer light units (BLU); mean over the file's lines of this peptide turned out to be 29.4 in test [1] and 28.3 in test [2].

B25: Q9Y215 243-257 (peptide)
chain: PSTLPRRPPVPSGQ
As for B25, the normalised SPOT signal, Boehringer light units (BLU); mean over the file's lines of this peptide is 309 in test [1] and 2140 in test [2].

B26: Q9HCM5 24-37 (peptide)
chain: PAARPRRPPTTLPP
As to B26, the normalised SPOT signal, Boehringer light units (BLU); mean over the file's lines of this peptide in test [1] turned out to be 109; in test [2] it was 7270.

B27: P16989 219-232 (peptide)
chain: ARNQLRRPQYRPQY
On to B27, for which the normalised SPOT signal, Boehringer light units (BLU); mean over the file's lines of this peptide in test [1] is 13; in test [2], 27.2.

B28: P78325 461-474 (peptide)
chain: PAGELSRPKKDMSD
Turning to B28, the figures for the normalised SPOT signal, Boehringer light units (BLU); mean over the file's lines of this peptide in test [1] and in test [2] were 105 and 196, respectively.
